The record followed here is article PMC3335088 (PLoS ONE, 2012).

Settings in all cases: partners not purified
Test [1] deals with T1, MCM6 with 6-His tag in combination with a HA tag (human, UniProt Q14566 1-821).
T1 construct: MCM6; also called HA-MCM6; 6-His-tagged MCM6; source: High Five insect cells, baculovirus, in lysate
T1 sequence (looked up): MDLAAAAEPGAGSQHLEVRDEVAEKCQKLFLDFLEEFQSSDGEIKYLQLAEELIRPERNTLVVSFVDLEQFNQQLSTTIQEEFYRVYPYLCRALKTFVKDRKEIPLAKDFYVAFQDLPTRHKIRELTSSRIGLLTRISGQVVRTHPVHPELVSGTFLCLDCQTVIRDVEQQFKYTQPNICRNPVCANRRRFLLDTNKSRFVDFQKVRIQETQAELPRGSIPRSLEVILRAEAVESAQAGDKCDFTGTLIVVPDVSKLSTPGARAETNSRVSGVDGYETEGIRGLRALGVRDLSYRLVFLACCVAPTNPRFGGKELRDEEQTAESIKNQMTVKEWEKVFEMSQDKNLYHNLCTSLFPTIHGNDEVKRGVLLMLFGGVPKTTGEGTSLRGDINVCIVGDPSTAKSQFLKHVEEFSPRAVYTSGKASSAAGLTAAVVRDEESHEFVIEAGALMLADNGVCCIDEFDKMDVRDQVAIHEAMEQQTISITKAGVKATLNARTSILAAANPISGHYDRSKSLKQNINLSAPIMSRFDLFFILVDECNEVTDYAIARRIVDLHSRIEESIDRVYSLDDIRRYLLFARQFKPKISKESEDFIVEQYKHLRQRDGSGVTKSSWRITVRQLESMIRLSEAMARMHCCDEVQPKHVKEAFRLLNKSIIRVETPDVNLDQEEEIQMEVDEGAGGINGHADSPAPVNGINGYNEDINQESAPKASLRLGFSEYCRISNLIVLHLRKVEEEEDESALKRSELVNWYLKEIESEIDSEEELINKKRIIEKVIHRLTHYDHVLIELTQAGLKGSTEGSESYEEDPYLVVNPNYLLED
The experiment in a line: pull-down; co-expression in High Five insect cells; lysis in 50-100 mM Tris-HCl pH 8.0, 150 mM NaCl, 5% glycerol, 0.5% Triton X-100; tagged protein recovered on Ni-NTA, anti-FLAG M2, anti-HA or StrepT-actin resin, 1 hr at 4°C; washes with 300 mM NaCl; Coomassie staining and Western blot. Background: In western blotting, separated proteins are transferred to a membrane and probed.

The target in test [2] is T2, MCM4 with 6-His tag in combination with a StrepII tag (UniProt P33991 1-863).
T2 construct: MCM4; The methods describe one MCM4 baculovirus with both tags; also called Strep-MCM4; Strep-tagged MCM4; source: High Five insect cells, baculovirus, in lysate
T2 sequence (looked up): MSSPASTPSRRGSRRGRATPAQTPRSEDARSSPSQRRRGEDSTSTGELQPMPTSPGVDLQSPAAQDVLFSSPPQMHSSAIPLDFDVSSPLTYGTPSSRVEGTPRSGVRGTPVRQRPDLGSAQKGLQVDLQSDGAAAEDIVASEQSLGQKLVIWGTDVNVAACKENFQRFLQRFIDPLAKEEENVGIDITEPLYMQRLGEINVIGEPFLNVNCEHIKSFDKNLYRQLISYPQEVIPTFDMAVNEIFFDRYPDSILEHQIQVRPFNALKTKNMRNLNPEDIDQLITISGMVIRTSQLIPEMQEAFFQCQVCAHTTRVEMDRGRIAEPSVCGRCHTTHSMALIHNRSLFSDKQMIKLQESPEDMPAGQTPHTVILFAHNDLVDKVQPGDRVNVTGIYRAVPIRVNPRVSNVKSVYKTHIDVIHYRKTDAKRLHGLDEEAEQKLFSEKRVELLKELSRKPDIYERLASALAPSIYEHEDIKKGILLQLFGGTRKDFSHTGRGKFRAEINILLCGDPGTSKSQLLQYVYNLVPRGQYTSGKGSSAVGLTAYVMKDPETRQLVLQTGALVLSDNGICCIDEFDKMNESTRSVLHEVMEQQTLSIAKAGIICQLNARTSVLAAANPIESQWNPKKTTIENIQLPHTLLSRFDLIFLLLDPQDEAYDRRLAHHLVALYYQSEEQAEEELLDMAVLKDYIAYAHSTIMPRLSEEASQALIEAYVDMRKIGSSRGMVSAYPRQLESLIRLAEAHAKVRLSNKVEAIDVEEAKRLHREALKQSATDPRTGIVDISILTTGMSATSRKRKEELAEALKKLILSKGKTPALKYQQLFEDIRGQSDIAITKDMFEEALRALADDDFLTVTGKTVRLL
The test is described as above.

For test [3], the target named is T3, MCM5 with 6-His tag in combination with a triple FLAG tag (UniProt P33992 1-734).
T3 construct: MCM5; also called FLAG-MCM5; 6-His-tagged MCM5; source: High Five insect cells, baculovirus, in lysate; not shown: His6, N-terminal, kept; triple FLAG, N-terminal, kept
T3 sequence (looked up): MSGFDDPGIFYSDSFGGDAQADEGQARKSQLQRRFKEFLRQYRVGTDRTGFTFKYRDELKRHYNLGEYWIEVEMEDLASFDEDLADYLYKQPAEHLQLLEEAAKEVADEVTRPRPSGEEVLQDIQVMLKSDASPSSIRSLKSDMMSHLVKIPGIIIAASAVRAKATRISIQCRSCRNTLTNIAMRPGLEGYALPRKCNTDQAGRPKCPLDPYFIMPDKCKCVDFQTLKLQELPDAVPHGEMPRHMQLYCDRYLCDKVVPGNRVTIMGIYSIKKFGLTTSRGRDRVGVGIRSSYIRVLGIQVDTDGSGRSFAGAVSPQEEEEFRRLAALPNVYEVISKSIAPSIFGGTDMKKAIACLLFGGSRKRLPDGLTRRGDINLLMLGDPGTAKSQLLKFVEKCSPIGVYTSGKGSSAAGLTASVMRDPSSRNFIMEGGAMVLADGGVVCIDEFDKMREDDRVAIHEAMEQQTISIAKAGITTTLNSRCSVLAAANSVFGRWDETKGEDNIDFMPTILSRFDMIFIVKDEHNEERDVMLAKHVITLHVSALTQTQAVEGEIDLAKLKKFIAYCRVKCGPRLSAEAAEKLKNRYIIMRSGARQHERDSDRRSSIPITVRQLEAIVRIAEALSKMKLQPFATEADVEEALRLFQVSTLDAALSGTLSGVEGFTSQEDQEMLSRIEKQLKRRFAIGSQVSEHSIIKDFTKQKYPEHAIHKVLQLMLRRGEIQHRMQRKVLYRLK
Described as above.

The target of the next test is T4, untagged MCM3 (UniProt P25205 1-808).
T4 construct: MCM3, untagged; construct not described in the methods; also called MCM3 (no tag); source: High Five insect cells, baculovirus, in lysate; co-isolated with His-MCM-BP for the gradient
T4 sequence (looked up): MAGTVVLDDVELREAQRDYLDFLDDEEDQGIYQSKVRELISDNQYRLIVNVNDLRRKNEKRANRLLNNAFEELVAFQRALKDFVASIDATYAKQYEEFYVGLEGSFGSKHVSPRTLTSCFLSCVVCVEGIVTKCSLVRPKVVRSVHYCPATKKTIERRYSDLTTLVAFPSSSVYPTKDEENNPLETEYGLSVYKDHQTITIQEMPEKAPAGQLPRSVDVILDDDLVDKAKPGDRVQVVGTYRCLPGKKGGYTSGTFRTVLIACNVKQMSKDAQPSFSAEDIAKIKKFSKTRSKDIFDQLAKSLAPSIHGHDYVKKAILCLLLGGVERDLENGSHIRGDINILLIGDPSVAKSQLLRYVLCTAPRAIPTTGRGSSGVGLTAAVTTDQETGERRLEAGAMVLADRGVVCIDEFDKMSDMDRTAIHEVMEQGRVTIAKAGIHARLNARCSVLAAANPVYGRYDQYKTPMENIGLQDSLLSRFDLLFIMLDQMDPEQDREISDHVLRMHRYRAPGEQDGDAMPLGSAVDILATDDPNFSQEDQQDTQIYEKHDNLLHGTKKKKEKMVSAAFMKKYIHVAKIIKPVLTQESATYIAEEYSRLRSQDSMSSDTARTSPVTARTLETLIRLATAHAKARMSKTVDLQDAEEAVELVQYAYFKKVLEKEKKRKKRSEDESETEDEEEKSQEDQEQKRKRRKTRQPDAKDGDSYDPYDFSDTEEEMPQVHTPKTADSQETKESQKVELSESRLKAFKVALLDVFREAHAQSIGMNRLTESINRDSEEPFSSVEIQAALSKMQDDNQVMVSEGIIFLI
Nature of the test: pull-down; co-expression in High Five insect cells; NaCl of the clarified lysate raised from 0.15 M up to 0.75 M, or deoxycholate added to 0.1 or 0.5% (with 150 mM NaCl), before incubation with Strep-T actin, anti-FLAG or nickel resin; Coomassie staining.

B1: MCM-BP with no tags (natural protein, human, UniProt Q9BTE3 1-642, looked up)
chain: MPCGEDWLSHPLGIVQGFFAQNGVNPDWEKKVIEYFKEKLKENNAPKWVPSLNEVPLHYLKPNSFVKFRCMIQDMFDPEFYMGVYETVNQNTKAHVLHFGKYRDVAECGPQQELDLNSPRNTTLERQTFYCVPVPGESTWVKEAYVNANQARVSPSTSYTPSRHKRSYEDDDDMDLQPNKQKDQHAGARQAGSVGGLQWCGEPKRLETEASTGQQLNSLNLSSPFDLNFPLPGEKGPACLVKVYEDWDCFKVNDILELYGILSVDPVLSILNNDERDASALLDPMECTDTAEEQRVHSPPASLVPRIHVILAQKLQHINPLLPACLNKEESKTCKFVSSFMSELSPVRAELLGFLTHALLGDSLAAEYLILHLISTVYTRRDVLPLGKFTVNLSGCPRNSTFTEHLYRIIQHLVPASFRLQMTIENMNHLKFIPHKDYTANRLVSGLLQLPSNTSLVIDETLLEQGQLDTPGVHNVTALSNLITWQKVDYDFSYHQMEFPCNINVFITSEGRSLLPADCQIHLQPQLIPPNMEEYMNSLLSAVLPSVLNKFRIYLTLLRFLEYSISDEITKAVEDDFVEMRKNDPQSITADDLHQLLVVARCLSLSAGQTTLSRERWLRAKQLESLRRTRLQQQKCVNGNEL
notes: MCM-BP, human; made from pfastBacHT.MCM-BP by excising the 6-His tag; also called untagged MCM-BP; nontagged MCM-BP; source: High Five insect cells, baculovirus, co-expressed, in lysate
On to B1, for which the binding result in test [1], in test [2] and in test [3] was “binds” throughout.

B2: His-tagged MCM-BP (natural protein, human, UniProt Q9BTE3 1-642, looked up)
chain: B1 chain
notes: MCM-BP, human; pfastBacHT.MCM-BP; also called His-MCM-BP; His-BP; source: High Five insect cells, baculovirus; not shown: His6, N-terminal, kept
Turning to B2, the binding result with untagged MCM3 is “binds”.
